Assays:
Test in all cases: alanine scan, flow cytometry, HEK293-T;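 further: antibody binding to each alanine-substituted CD33 mutant expressed transiently in HEK293-T, read as fluorescence minus background, mean of duplicates, relative to wild-type CD33 set as 100%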
human CD33 A289S = human CD33 A289S (human, UniProt P20138 18-364)
Experimental: (§1) An alanine scan on human CD33 was performed to the determine the residues on CD33 that are involved in binding to the antibodies investigated. […] Briefly, a mutation library of CD33 was created by high-throughput, site-directed mutagenesis. Each residue was individually mutated to alanine, with alanine codons mutated to serine. The mutant library was arrayed in 384-well microplates and transiently transfected into HEK293-T. Following transfection, cells were incubated with the indicated antibodies (IgG or Fab) at concentrations pre-determined using an independent immunofluorescence titration curve on wild type CD33. […] Binding of each antibody to each mutant clone was determined in duplicates. For each point, background fluorescence was subtracted from the raw data, which were then normalized to antibody reactivity with wild type CD33.
(§2) Critical residues for antibody binding (outlined in dark grey) were residues whose mutations led to a binding of the test Abs of less than 20%. Additional secondary residues (outlined in light grey) were identified that led to a binding of the test Abs of between 20 and 40% as compared to the wild type CD33.

human CD33 V258A = human CD33 V258A (human, UniProt P20138 18-364)
Experimental: as §1, §2

human CD33 S305A = human CD33 S305A (human, UniProt P20138 18-364)
Experimental: as §1, §2

human CD33 I278A = human CD33 I278A (human, UniProt P20138 18-364)
Experimental: as §1, §2

human CD33 G304A = human CD33 G304A (human, UniProt P20138 18-364)
Experimental: as §1, §2

human CD33 H259A = human CD33 H259A (human, UniProt P20138 18-364)
Experimental: as §1, §2

human CD33 Q251A = human CD33 Q251A (human, UniProt P20138 18-364)
Experimental: as §1, §2

human CD33 T253A = human CD33 T253A (human, UniProt P20138 18-364)
Experimental: as §1, §2

human CD33 K283A = human CD33 K283A (human, UniProt P20138 18-364)
Experimental: as §1, §2

human CD33 G295A = human CD33 G295A (human, UniProt P20138 18-364)
Experimental: as §1, §2

human CD33 H317A = human CD33 H317A (human, UniProt P20138 18-364)
Experimental: as §1, §2

human CD33 H285A = human CD33 H285A (human, UniProt P20138 18-364)
Experimental: as §1, §2

human CD33 R291A = human CD33 R291A (human, UniProt P20138 18-364)
Experimental: as §1, §2

human CD33 L316A = human CD33 L316A (human, UniProt P20138 18-364)
Experimental: as §1, §2

human CD33 G245A = human CD33 G245A (human, UniProt P20138 18-364)
Experimental: as §1, §2

human CD33 R254A = human CD33 R254A (human, UniProt P20138 18-364)
Experimental: as §1, §2

human CD33 G247A = human CD33 G247A (human, UniProt P20138 18-364)
Experimental: as §1, §2

human CD33 A272S = human CD33 A272S (human, UniProt P20138 18-364)
Experimental: as §1, §2

human CD33 L277A = human CD33 L277A (human, UniProt P20138 18-364)
Experimental: as §1, §2

human CD33 K315A = human CD33 K315A (human, UniProt P20138 18-364)
Experimental: as §1, §2

human CD33 Q311A = human CD33 Q311A (human, UniProt P20138 18-364)
Experimental: as §1, §2

human CD33 S307A = human CD33 S307A (human, UniProt P20138 18-364)
Sequence of human CD33 S307A (P20138 18-364 S307A limits assumed): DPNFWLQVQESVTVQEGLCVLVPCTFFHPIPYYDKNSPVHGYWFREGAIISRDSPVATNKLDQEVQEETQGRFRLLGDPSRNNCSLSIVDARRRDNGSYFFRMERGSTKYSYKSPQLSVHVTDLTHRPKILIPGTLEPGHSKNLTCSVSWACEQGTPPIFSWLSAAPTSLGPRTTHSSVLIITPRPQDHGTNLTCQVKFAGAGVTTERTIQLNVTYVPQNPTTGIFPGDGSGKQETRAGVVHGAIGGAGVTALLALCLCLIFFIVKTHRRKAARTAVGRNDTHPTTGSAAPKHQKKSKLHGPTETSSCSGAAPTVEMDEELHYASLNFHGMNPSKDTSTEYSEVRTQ
Experimental: as §1, §2

Sequence of human CD33 G247A (P20138 18-364 G247A limits assumed): as the sequence (P20138 18-364 S307A limits assumed) above, with G230A, A290S counted along it
Sequence of human CD33 V258A (P20138 18-364 V258A limits assumed): as the sequence (P20138 18-364 S307A limits assumed) above, with V241A, A290S counted along it
Sequence of human CD33 Q311A (P20138 18-364 Q311A limits assumed): as the sequence (P20138 18-364 S307A limits assumed) above, with A290S, Q294A counted along it
Sequence of human CD33 L277A (P20138 18-364 L277A limits assumed): as the sequence (P20138 18-364 S307A limits assumed) above, with L260A, A290S counted along it
Sequence of human CD33 R291A (P20138 18-364 R291A limits assumed): as the sequence (P20138 18-364 S307A limits assumed) above, with R274A, A290S counted along it
Sequence of human CD33 I278A (P20138 18-364 I278A limits assumed): as the sequence (P20138 18-364 S307A limits assumed) above, with I261A, A290S counted along it
Sequence of human CD33 Q251A (P20138 18-364 Q251A limits assumed): as the sequence (P20138 18-364 S307A limits assumed) above, with Q234A, A290S counted along it
Sequence of human CD33 S305A (P20138 18-364 S305A limits assumed): as the sequence (P20138 18-364 S307A limits assumed) above, with S288A, A290S counted along it
Sequence of human CD33 A289S (P20138 18-364 A289S limits assumed): as the sequence (P20138 18-364 S307A limits assumed) above, with A272S, A290S counted along it
Sequence of human CD33 R254A (P20138 18-364 R254A limits assumed): as the sequence (P20138 18-364 S307A limits assumed) above, with R237A, A290S counted along it
Sequence of human CD33 T253A (P20138 18-364 T253A limits assumed): as the sequence (P20138 18-364 S307A limits assumed) above, with T236A, A290S counted along it
Sequence of human CD33 G304A (P20138 18-364 G304A limits assumed): as the sequence (P20138 18-364 S307A limits assumed) above, with G287A, A290S counted along it
Sequence of human CD33 H317A (P20138 18-364 H317A limits assumed): as the sequence (P20138 18-364 S307A limits assumed) above, with A290S, H300A counted along it
Sequence of human CD33 H259A (P20138 18-364 H259A limits assumed): as the sequence (P20138 18-364 S307A limits assumed) above, with H242A, A290S counted along it
Sequence of human CD33 L316A (P20138 18-364 L316A limits assumed): as the sequence (P20138 18-364 S307A limits assumed) above, with A290S, L299A counted along it
Sequence of human CD33 A272S (P20138 18-364 A272S limits assumed): as the sequence (P20138 18-364 S307A limits assumed) above, with A255S, A290S counted along it
Sequence of human CD33 H285A (P20138 18-364 H285A limits assumed): as the sequence (P20138 18-364 S307A limits assumed) above, with H268A, A290S counted along it
Sequence of human CD33 G295A (P20138 18-364 G295A limits assumed): as the sequence (P20138 18-364 S307A limits assumed) above, with G278A, A290S counted along it
Sequence of human CD33 K283A (P20138 18-364 K283A limits assumed): as the sequence (P20138 18-364 S307A limits assumed) above, with K266A, A290S counted along it
Sequence of human CD33 G245A (P20138 18-364 G245A limits assumed): as the sequence (P20138 18-364 S307A limits assumed) above, with G228A, A290S counted along it
Sequence of human CD33 K315A (P20138 18-364 K315A limits assumed): as the sequence (P20138 18-364 S307A limits assumed) above, with A290S, K298A counted along it

Row | Mean % WT Binding (human CD33 A289S) | Mean % WT Binding (human CD33 V258A) | Mean % WT Binding (human CD33 S305A) | Mean % WT Binding (human CD33 I278A) | Mean % WT Binding (human CD33 G304A) | Mean % WT Binding (human CD33 H259A) | Mean % WT Binding (human CD33 Q251A) | Mean % WT Binding (human CD33 T253A) | Mean % WT Binding (human CD33 K283A) | Mean % WT Binding (human CD33 G295A) | Mean % WT Binding (human CD33 H317A) | Mean % WT Binding (human CD33 H285A) | Mean % WT Binding (human CD33 R291A) | Mean % WT Binding (human CD33 L316A) | Mean % WT Binding (human CD33 G245A) | Mean % WT Binding (human CD33 R254A) | Mean % WT Binding (human CD33 G247A) | Mean % WT Binding (human CD33 A272S) | Mean % WT Binding (human CD33 L277A) | Mean % WT Binding (human CD33 K315A) | Binder | also measured
1 | 82.8 % WT binding | 106 % WT binding | 103 % WT binding | 100 % WT binding | 121 % WT binding | 104 % WT binding | 93.3 % WT binding | 98.1 % WT binding | 90.9 % WT binding | 95.8 % WT binding | 157 % WT binding | 94.3 % WT binding | 97.5 % WT binding | 90.4 % WT binding | 127 % WT binding | 88.4 % WT binding | 106 % WT binding | 105 % WT binding | 81.9 % WT binding | 136 % WT binding | Refmab #3 (antibody, V domains shown, The alanine scan used IgG or Fab) VH: QVQLVQSGAEVKKPGSSVKVSCKASGYTFTDYNMHWVRQAPGQGLEWIGYIYPYNGGTGYNQKFKSKATITADESTNTAYMELSSLRSEDTAVYYCARGRPAMDYWGQGTLVTVSS VL: DIQMTQSPSSLSASVGDRVTITCRASESVDNYGISFMNWFQQKPGKAPKLLIYAASNQGSGVPSRFSGSGSGTDFTLTISSLQPDDFATYYCQQSKEVPWTFGQGTKVEIK | Mean % WT Binding (human CD33 Q311A): 124 % WT binding; Mean % WT Binding (human CD33 S307A): 60.1 % WT binding
2 | 95 % WT binding | 95.8 % WT binding | 104 % WT binding | 116 % WT binding | 95 % WT binding | 114 % WT binding | 97.5 % WT binding | 108 % WT binding | 84 % WT binding | 107 % WT binding | 82.6 % WT binding | 95.2 % WT binding | 102 % WT binding | 80 % WT binding | 94.9 % WT binding | 101 % WT binding | 113 % WT binding | 107 % WT binding | 92.2 % WT binding | 48.4 % WT binding | Refmab #4 (antibody, V domains shown, The alanine scan used IgG or Fab) VH: QVQLVQSGAEVKKPGESVKVSCKASGYTFTNYGMNWVKQAPGQGLEWMGWINTYTGEPTYADKFQGRVTMTTDTSTSTAYMEIRNLGGDDTAVYYCARWSWSDGYYVYFDYWGQGTSVTVSS VL: DIVMTQSPDSLTVSLGERTTINCKSSQSVLDSSTNKNSLAWYQQKPGQPPKLLLSWASTRESGIPDRFSGSGSGTDFTLTIDSPQPEDSATYYCQQSAHFPITFGQGTRLEIK | Mean % WT Binding (human CD33 Q311A): 102 % WT binding; Mean % WT Binding (human CD33 S307A): 114 % WT binding

Reference: patent US20260242735A1 (UNIVERSIT T BASEL, published 2026)
